# Measurements as given in the Immune Epitope Database (IEDB).
# Key:
# HLA-A*68:02 [1] = experiment: IEDB peptide-MHC binding, purified MHC/competitive/fluorescence; filed as Kd, often an IC50 or EC50 that approximates it; ≥ and ≤ were set here for values at or beyond the usual limits of such assays; conditions: source organism: Orthomarburgvirus marburgense
# HLA-A*69:01 [2] = experiment: as above; conditions: source organism: Orthomarburgvirus marburgense
# HLA-A*26:03 [3] = experiment: as above; conditions: source organism: Orthomarburgvirus marburgense
# HLA-B*35:01 = experiment: as above; conditions: source organism: Orthomarburgvirus marburgense
# HLA-A*02:06 = experiment: as above
# HLA-A*02:01 [4] = experiment: as above; conditions: source organism: Orthomarburgvirus marburgense
# HLA-B*15:17 = experiment: as above
# HLA-A*26:02 = experiment: as above; conditions: source organism: Orthomarburgvirus marburgense
# HLA-A*01:01 = experiment: IEDB peptide-MHC binding, purified MHC/direct/fluorescence; filed as Kd, often an IC50 or EC50 that approximates it; ≥ and ≤ were set here for values at or beyond the usual limits of such assays
# HLA-B*18:01 = experiment: as above
# HLA-B*58:01 = experiment: as above
# HLA-B*15:01 = experiment: as above
# HLA-B*46:01 [5] = experiment: as above; conditions: source organism: Marburg virus - Musoke, Kenya, 1980
# HLA-B*08:02 = experiment: as above; conditions: source organism: Ravn virus - Ravn, Kenya, 1987
# HLA-A*11:01 [6] = experiment: as above; conditions: source organism: Marburg virus - Musoke, Kenya, 1980
# HLA-A*03:01 = experiment: as above
# HLA-B*57:01 = experiment: as above
# HLA-B*40:01 = experiment: as above; conditions: source organism: Marburg virus - Musoke, Kenya, 1980
# HLA-B*27:05 = experiment: as above
# HLA-B*48:01 = experiment: as above
# HLA-A*31:01 [7] = experiment: as above; conditions: source organism: Marburg virus - Musoke, Kenya, 1980
# HLA-B*07:02 = experiment: as above
# HLA-A*30:01 = experiment: IEDB peptide-MHC binding, purified MHC/competitive/fluorescence; filed as Kd, often an IC50 or EC50 that approximates it; ≥ and ≤ were set here for values at or beyond the usual limits of such assays; conditions: source organism: Lyssavirus rabies
# HLA-B*15:09 = experiment: as above; conditions: source organism: Lyssavirus rabies
# HLA-A*11:01 [8] = experiment: as above; conditions: source organism: Lyssavirus rabies
# HLA-A*31:01 [9] = experiment: as above; conditions: source organism: Lyssavirus rabies
# HLA-A*68:02 [10] = experiment: IEDB peptide-MHC binding, purified MHC/direct/fluorescence; filed as Kd, often an IC50 or EC50 that approximates it; ≥ and ≤ were set here for values at or beyond the usual limits of such assays; conditions: source organism: Lyssavirus rabies
# HLA-B*08:01 = experiment: as above; conditions: source organism: Lyssavirus rabies
# HLA-B*73:01 = experiment: as above; conditions: source organism: Lyssavirus rabies
# HLA-A*69:01 [11] = experiment: as above; conditions: source organism: Lyssavirus rabies
# HLA-A*26:03 [12] = experiment: as above; conditions: source organism: Lyssavirus rabies
# HLA-A*02:01 [13] = experiment: as above; conditions: source organism: Lyssavirus rabies
# HLA-C*06:02 = experiment: IEDB peptide-MHC binding, purified MHC/competitive/fluorescence; filed as Kd, often an IC50 or EC50 that approximates it; ≥ and ≤ were set here for values at or beyond the usual limits of such assays; conditions: source organism: Giardia lamblia ATCC 50803
# HLA-A*68:23 = experiment: as above; conditions: source organism: Giardia lamblia ATCC 50803
# HLA-B*45:06 = experiment: as above; conditions: source organism: Giardia lamblia ATCC 50803
# HLA-B*46:01 [14] = experiment: as above; conditions: source organism: Giardia lamblia ATCC 50803
# HLA-B*83:01 = experiment: as above; conditions: source organism: Giardia lamblia ATCC 50803
# HLA-A*32:15 = experiment: as above; conditions: source organism: Giardia lamblia ATCC 50803
# HLA-A*32:07 = experiment: as above; conditions: source organism: Giardia lamblia ATCC 50803
# HLA-C*14:02 = experiment: as above; conditions: source organism: Giardia lamblia ATCC 50803
# HLA-C*04:01 = experiment: as above; conditions: source organism: Giardia lamblia ATCC 50803
# HLA-B*15:42 = experiment: as above; conditions: source organism: Giardia lamblia ATCC 50803
# HLA-C*12:03 = experiment: IEDB peptide-MHC binding, purified MHC/direct/fluorescence; filed as Kd, often an IC50 or EC50 that approximates it; ≥ and ≤ were set here for values at or beyond the usual limits of such assays; conditions: source organism: Giardia lamblia ATCC 50803
# HLA-A*24:03 = experiment: as above; conditions: source organism: Giardia lamblia ATCC 50803
# [15] = source organism: Orthomarburgvirus marburgense
# [16] = source organism: Marburg virus - Musoke, Kenya, 1980
# [17] = source organism: Lyssavirus rabies
sequence,measurement,setting,value
TVLEFILQK,Kd,HLA-A*68:02 [1],3.88 µM
same,Kd,HLA-A*69:01 [2],827 nM
same,Kd,HLA-A*26:03 [3],≥ 20 µM
same,Kd,HLA-B*35:01,≥ 20 µM
same,Kd,HLA-A*02:06; [15],776 nM
same,Kd,HLA-A*02:01 [4],1170 nM
same,Kd,HLA-B*15:17; [15],≥ 20000 nM
same,Kd,HLA-A*26:02,≥ 20 µM
same,Kd,HLA-A*01:01; [16],≥ 20 µM
same,Kd,HLA-B*18:01; [16],≥ 20 µM
same,Kd,HLA-B*58:01; [16],≥ 20 µM
same,Kd,HLA-B*15:01; [16],≥ 20000 nM
same,Kd,HLA-B*46:01 [5],≥ 20 µM
same,Kd,HLA-B*08:02,≥ 20 µM
same,Kd,HLA-A*11:01 [6],2.3 nM
same,Kd,HLA-A*03:01; [16],141 nM
same,Kd,HLA-B*57:01; [16],≥ 20 µM
same,Kd,HLA-B*40:01,≥ 20 µM
same,Kd,HLA-B*27:05; [16],≥ 20000 nM
same,Kd,HLA-B*48:01; [16],≥ 20000 nM
same,Kd,HLA-A*31:01 [7],119 nM
same,Kd,HLA-B*07:02; [16],≥ 20 µM
RQMKSGGRF,Kd,HLA-A*30:01,≥ 20 µM
same,Kd,HLA-B*15:09,≥ 20 µM
same,Kd,HLA-A*11:01 [8],≥ 20 µM
same,Kd,HLA-A*31:01 [9],≥ 20 µM
same,Kd,HLA-A*02:06; [17],476 nM
same,Kd,HLA-B*15:17; [17],631 nM
same,Kd,HLA-A*68:02 [10],≥ 20 µM
same,Kd,HLA-A*01:01; [17],≥ 20 µM
same,Kd,HLA-B*18:01; [17],≥ 20 µM
same,Kd,HLA-B*58:01; [17],≥ 20 µM
same,Kd,HLA-B*08:01,≥ 20 µM
same,Kd,HLA-B*15:01; [17],119 nM
same,Kd,HLA-B*73:01,≥ 20 µM
same,Kd,HLA-A*03:01; [17],≥ 20000 nM
same,Kd,HLA-B*57:01; [17],≥ 20 µM
same,Kd,HLA-A*69:01 [11],≥ 20 µM
same,Kd,HLA-B*27:05; [17],275 nM
same,Kd,HLA-A*26:03 [12],≥ 20 µM
same,Kd,HLA-B*48:01; [17],1620 nM
same,Kd,HLA-A*02:01 [13],≥ 20 µM
same,Kd,HLA-B*07:02; [17],≥ 20 µM
YTFFFTQYF,Kd,HLA-C*06:02,1390 nM
same,Kd,HLA-A*68:23,≤ 0.1 nM
same,Kd,HLA-B*45:06,≥ 5 µM
same,Kd,HLA-B*46:01 [14],342 nM
same,Kd,HLA-B*83:01,≥ 5 µM
same,Kd,HLA-A*32:15,91.1 nM
same,Kd,HLA-A*32:07,34.5 nM
same,Kd,HLA-C*14:02,79.4 nM
same,Kd,HLA-C*04:01,≥ 5 µM
same,Kd,HLA-B*15:42,≥ 5 µM
same,Kd,HLA-C*12:03,44 nM
same,Kd,HLA-A*24:03,28.5 nM
